Measured values: patent US20110135636A1 (SYMPHOGEN A S, published 2011)

Assays:
[1] = target: T1, recombinant human EGFR extracellular domain with 6xHis (human, UniProt P00533 25-645); test: SPR competition, competitor Ab-10
T1 construct: In-house produced; also called 6xHis EGFR ECD; soluble human EGFR ECD; not shown: 6xHis tag
Method: (§1) SPR analysis was performed on a Biacore 3000 machine containing four flow cells. A CM5 Biacore chip was conjugated with 10,000 Resonance units (Ru) polyclonal anti-His antibody to flow cells 1-4 according to the manufacturer's instructions. […] Immediately after antigen injection the maximal binding of the Anti-EGFR mAb without competition was established in each flow cell during a reference run. Briefly 5 μl antibody at a concentration of 40 μg/ml was injected over all flow cells with captured EGFR followed by stripping of the antibody/antigen complex with a low pH acid wash (10 sec. contact time with 10 mM Glycine-HCl, pH2). After the determination of Anti-EGFR antibody maximal binding to each flow cell, a competition run was performed during the same Biacore cycle. Flow cells were first saturated with EGFR ECD antigen followed by injection of different reference antibodies or Anti-EGFR antibodies into separate flow cells using the same antigen saturating conditions as outlined above. This step was immediately followed by a second injection of Anti-EGFR antibody over the flow cell saturated with EGFR antigen and competition antibody to minimize the dissociation of either antigen or blocking antibody. Then the antibody/antigen complexes were stripped off with a low pH acid wash (10 sec. contact time with 10 mM Glycine-HCl, pH 2) and the whole cycle beginning with the reference run was repeated with a new Anti-EGFR antibody. The degree of inhibition of tested Anti-EGFR antibodies were determined by comparing the Ru max value of the individual Anti-EGFR antibody before and after competition by introduction of report points recorded two seconds before and after injection of each sample.

[2] = target: T1, recombinant human EGFR extracellular …; test: SPR competition, competitor 1024
Method: as §1

[3] = target: T1, recombinant human EGFR extracellular …; test: SPR competition, competitor Erbitux
Method: as §1

[4] = target: T1, recombinant human EGFR extracellular …; test: SPR competition, competitor 1277
Method: as §1

[5] = target: T1, recombinant human EGFR extracellular …; test: SPR competition, competitor 1260
Method: as §1

[6] = target: T1, recombinant human EGFR extracellular …; test: SPR competition, competitor Ab-5
Method: as §1

[7] = target: T1, recombinant human EGFR extracellular …; test: SPR competition, competitor 1284
Method: as §1

[8] = target: T1, recombinant human EGFR extracellular …; test: SPR competition, competitor 1320
Method: as §1

[9] = target: T1, recombinant human EGFR extracellular …; test: SPR competition, competitor Ab-3
Method: as §1

[10] = target: T1, recombinant human EGFR extracellular …; test: SPR competition, competitor ICR10
Method: as §1

[11] = target: T1, recombinant human EGFR extracellular …; test: SPR competition, competitor 992 corr
Method: as §1

[12] = target: T1, recombinant human EGFR extracellular …; test: SPR competition, competitor Erbitux; remark: listed apart in the source
Method: as §1

[13] = target: T1, recombinant human EGFR extracellular …; test: SPR competition, competitor 1208
Method: as §1

[14] = target: T1, recombinant human EGFR extracellular …; test: SPR competition, competitor Vectibix
Method: as §1

[15] = target: T1, recombinant human EGFR extracellular …; test: SPR competition, competitor 1254
Method: as §1

[16] = target: T1, recombinant human EGFR extracellular …; test: SPR competition, competitor 1261
Method: as §1

[17] = target: T1, recombinant human EGFR extracellular …; test: SPR competition, competitor Ab-1
Method: as §1

[18] = target: T1, recombinant human EGFR extracellular …; test: SPR competition, competitor Vectibix; remark: listed apart in the source
Method: as §1

[19] = target: T1, recombinant human EGFR extracellular …; test: SPR competition, competitor 1257
Method: as §1

[20] = target: T1, recombinant human EGFR extracellular …; test: SPR competition, competitor 1347
Method: as §1

[21] = target: T1, recombinant human EGFR extracellular …; test: SPR competition, competitor Ab-11
Method: as §1

[22] = target: T1, recombinant human EGFR extracellular …; test: SPR competition, competitor 1344
Method: as §1

[23] = target: T1, recombinant human EGFR extracellular …; test: SPR competition, competitor 1030corr
Method: as §1

Binder	% inhibition [1] [%]	% inhibition [2] [%]	% inhibition [3] [%]	% inhibition [4] [%]	% inhibition [5] [%]	% inhibition [6] [%]	% inhibition [7] [%]	% inhibition [8] [%]	% inhibition [9] [%]	% inhibition [10] [%]	% inhibition [11] [%]	% inhibition [12] [%]	% inhibition [13] [%]	% inhibition [14] [%]	% inhibition [15] [%]	% inhibition [16] [%]	% inhibition [17] [%]	% inhibition [18] [%]	% inhibition [19] [%]	% inhibition [20] [%]	further results
antibody 1208 (antibody, human IgG1, kappa, V domains shown, Chimeric IgG1 kappa; also called clone 1208) VH: EVQLVESGGGLVKPGGSLKLSCAASGFAFSSYDMSWVRQTPEKRLEWVAYIGSGDDNTHYPDSVKGRFTISRHNAKNTLYLQMSSLKSEDTAMYYCARQKYGNYGDTMDYWGQGTSVTVSS VL: DVVMTQTPLSLPVSLGDQASISCRSSQSLVHSNGNTYLHWYLQKPGQSPKLLIYKVSNRFSGVPDRFSGSGSGTDFTLKISRVEAEDLGVYFCSQSTHVPTFGGGTKLEIKR	32	3	18	40	4	66	4	30	5	5	100	18	78	29	33	13	37	25	9	4	% inhibition [21]: 4%; % inhibition [22]: 7%; % inhibition [23]: 27%
antibody 1030 (antibody, human IgG1, kappa, V domains shown, Chimeric IgG1 kappa) VH: EVQLVESGGGLVKPGGSLKLSCAASGFTFSSYALSWVRQTPERRLEWVASISGVGSTYFPDSVKGRFTMSRDNARNILYLQMSSLRSEDTAMYYCARGSDGYFYAMDYWGQGTSVTVSS VL: DIVLTQSPASLAVSLGQRATISCRASKSVSTSGYSFMHWYQLKPGQPPKLLIYLASNLESGVPARFSGSGSGTDFTLNIHPVEEEDAATYYCQHSREFPLTFGGGTKLEIKR	84	-1	-1	103	16	104	32	4	6	54	-3	-1	112	16	107	8	98	17	5	6	% inhibition [21]: -5%; % inhibition [22]: 24%; % inhibition [23]: 89%
antibody 992 (antibody, human IgG1, kappa, V domains shown, Chimeric mouse/human IgG1 kappa; the VL entry includes the human kappa constant region) VH: EVQLQQPGSELVRPGASVKLSCKASGYTFTSYWMHWVKQRPGQGLEWIGNIYPGSRSTNYDEKFKSKATLTVDTSSSTAYMQLSSLTSEDSAVYYCTRNGDYYVSSGDAMDYWGQGTSVTVSS VL: DIQMTQTTSSLSASLGDRVTISCRTSQDIGNYLNWYQQKPDGTVKLLIYYTSRLHSGVPSRFSGSGSGTDFSLTINNVEQEDVATYFCQHYNTVPPTFGGGTKLEIKR	-4	-55	90	110	-10	1	6	-38	7	-4	96	90	109	106	128	-13	99	125	16	7	% inhibition [21]: -3%; % inhibition [22]: 9%; % inhibition [23]: -18%
antibody 1024 (antibody, human IgG1, kappa, V domains shown, Chimeric IgG1 kappa) VH: QVQLQQPGAELVEPGGSVKLSCKASGYTFTSHWMHWVKQRPGQGLEWIGEINPSSGRNNYNEKFKSKATLTVDKSSSTAYMQFSSLTSEDSAVYYCVRYYGYDEAMDYWGQGTSVTVSS VL: DIVMTQAAFSNPVTLGTSASISCRSSKSLLHSNGITYLYWYLQKPGQSPQLLIYQMSNLASGVPDRFSSSGSGTDFTLRISRVEAEDVGVYYCAQNLELPYTFGGGTKLEIKR	-5	96	104	-1	35	0	-2	86	0	-3	-58	104	-7	102	5	-27	6	82	22	2	% inhibition [21]: -13%; % inhibition [22]: 1%; % inhibition [23]: 3%
